Molecular target: RSV F A strain Viral Protein (Respiratory Syncytial Virus A strain)
Test: SPR

Palivizumab
Kd: 0.26 nM

Reference: patent publication US20220387579A1
